Assay results published in PMC12421828.

biological target: FLAG-14-3-3ε (pCAGG-FLAG 14-3-3ε of Figure 5, isoform not told); experiment: co-immunoprecipitation (anti-FLAG IP), immunoblot band quantification; conditions: BSR cells co-transfected; immunoprecipitation at 24 h post-transfection; parent: est. 0.76; read off a plot

**Q.** HA2B* expressed from pCAGG-HA2B* S17A was tested. Which response (Elution / Input) did it give?
**A.** 1.5

**Q.** How did the response (Elution / Input) turn out when HA2B* expressed from pCAGG-HA2B* S17D was run?
**A.** 1.4

**Q.** How did the response (Elution / Input) turn out when HA2B* expressed from pCAGG-HA2B* S17E was run?
**A.** 1.7

**Q.** HA2B* expressed from pCAGG-HA2B* S19A was tested. Which response (Elution / Input) did it give?
**A.** 1.1

**Q.** Which response (Elution / Input) does the source give for HA2B* expressed from pCAGG-HA2B* S19D here?
**A.** 1.9

**Q.** For HA2B* expressed from pCAGG-HA2B* S19E, which response (Elution / Input) is on record?
**A.** 0.76
